{
  "source": "paper PMC5299047",
  "about": "(Structure (London, England : 1993), 2017)",
  "proteins": {"B1": {"name": "Saccharomyces cerevisiae Rnt1p (intact protein) (enzyme, UniProt Q02555 1-471, looked up)", "chain": "MGSKVAGKKKTQNDNKLDNENGSQQRENINTKTLLKGNLKISNYKYLEVIQLEHAVTKLVESYNKIIELSPNLVAYNEAVNNQDRVPVQILPSLSRYQLKLAAELKTLHDLKKDAILTEITDYENEFDTEQKQPILQEISKADMEKLEKLEQVKREKREKIDVNVYENLNEKEDEEEDEGEDSYDPTKAGDIVKATKWPPKLPEIQDLAIRARVFIHKSTIKDKVYLSGSEMINAHNERLEFLGDSILNSVMTLIIYNKFPDYSEGQLSTLRMNLVSNEQIKQWSIMYNFHEKLKTNFDLKDENSNFQNGKLKLYADVFEAYIGGLMEDDPRNNLPKIRKWLRKLAKPVIEEATRNQVALEKTDKLDMNAKRQLYSLIGYASLRLHYVTVKKPTAVDPNSIVECRVGDGTVLGTGVGRNIKIAGIRAAENALRDKKMLDFYAKQRAAIPRSESVLKDPSQKNKKRKFSDTS"}},
  "molecular_target": "the molecule itself",
  "assay": "SAXS",
  "data": [
    {"protein": "B1", "values": [
      {"measurement": "stoichiometry N", "value": 2}
    ]}
  ]
}
